Assay [1] has as its target T1, t-Bid (Homo sapiens, UniProt P55957).
T1 sequence (P55957 61-195 limits assumed): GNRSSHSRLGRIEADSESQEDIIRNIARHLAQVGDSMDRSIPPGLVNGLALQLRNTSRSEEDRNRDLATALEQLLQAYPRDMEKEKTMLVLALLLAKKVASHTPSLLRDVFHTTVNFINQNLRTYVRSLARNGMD
The experiment in a line: Bid-induced apoptosis in CSM14.1 cells (DAPI staining). It is filed as cell-based. As to conditions: 24 hours after transfection. Set-up: expressed in transfected cells; host or cells: CSM14.1 rat hippocampal neuronal cells. On the procedure:
Apoptosis was examined by DAPI staining. The data shown were obtained using the cytosolic form of Humanin; however, both cytosolic and mitochondrial forms of Humanin were tested and the results were the same.
Rat neuronal cell line CSM14.1 cells were transfected with various plasmids using the Lipofectamine reagent (Invitrogen). For transfection, 10×10^5 cells were plated per well using 6 well plates. Each well received 1 μg DNA plus […] of Lipofectamine. After 24 hours of transfection, the percentage of cell death was determined using 4′-6-diamidino-2-phenylindole (DAPI) staining. […] The data shown were obtained using the cytosolic form of Humanin; however, both cytosolic and mitochondrial forms of Humanin were tested and the results were the same.

In a further assay the test system is Bax. Briefly: Bax-induced lethality in yeast. It is filed as cell-based, S. cerevisiae. Conditions: TAD-fusion polypeptide, galactose-induced Bax.
For assay [2], the target named is T1, t-Bid. Briefly: Co-immunoprecipitation of Humanin with t-Bid in 293T cells. In kind it is binding. Set-up: expressed in transfected cells. As for the experimental part: The lysates were immunoprecipitated with (A) anti-GFP antibody or (B) anti-tBid antibody and blotted with (A) anti-HA antibody or (B) anti-GFP antibody. The data shown were obtained using the cytosolic form of Humanin; however, both cytosolic and mitochondrial forms of Humanin were tested and the results were the same.
The following experiments confirm an interaction between Humanin and Bax. Similar experiments were performed to confirm an interaction between Humanin and Bid.

The target of another assay is T2, Bak (Homo sapiens, UniProt Q16611).
T2 sequence (Q16611 1-211): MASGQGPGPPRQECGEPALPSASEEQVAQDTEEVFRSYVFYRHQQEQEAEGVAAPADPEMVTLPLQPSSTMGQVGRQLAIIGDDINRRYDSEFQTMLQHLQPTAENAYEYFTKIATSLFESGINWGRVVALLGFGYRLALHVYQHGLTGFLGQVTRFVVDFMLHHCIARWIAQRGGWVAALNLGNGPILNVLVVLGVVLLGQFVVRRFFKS
Briefly: Bak-induced apoptosis in transfected cells. In kind it is cell-based. Also noted: expressed in transfected cells. Conditions: CSM14.1 or PC-3 cells, transient co-transfection. On the procedure: (A-D) CMS14.1 neuronal cells were transfected with plasmids encoding Flag-HN peptide or Flag-control (27-amino-acid) peptide, together with GFP-encoding plasmid at 4:1 ratio. Cells were either cultured without further treatment (open bars) or subjected to various apoptotic stimuli for various times (dark bars), including (A) STS for 8 h (dark symbols=Flag-control; open symbols=Flag-HN), (B) Serum-deprivation for 72 h, (C) 10 joules/m2 Uvirradiation followed by 24 h culture, and (D) 50 ng/ml TNFa in […] for 24 h. Cells were then fixed and stained with DAPI to determine the percentage of apoptotic cells, evaluating=200 GFP-positive cells per sample (mean±SD; n=3). (inset) Lysates prepared from replicate cultures of transfected cells were normalized for total protein content and analyzed by immunoblotting using anti-Flag (top) and anti-tubulin (bottom) antibodies, confirming production of similar amounts of Flag-control and Flag-HN peptides. […] (Upper panel) After 72 hr, cell lysates were prepared and 100 ug was analyzed by immunoblotting using anti-HN and anti-tubulin (as a loading control) antibodies. (Lower panel) At 72 hr after siRNA transfection, SF268 cells were cultured with 0.1 μM STS for 8 hrs, then % apoptosis was determined (mean+std dev; n=3). […] Apoptosis (%) was measured 48 hrs later among GFP-positive cells. […]

In the case of “Humanin: 24 amino acid polypeptide, cytosolic form of human Humanin (SEQ ID NO:2); used as synthetic peptide or expressed fusion”, the Bid-induced apoptosis result with t-Bid [1] was “decreased”. For the same substance, in the assay on Bax, the “rescue of yeast from Bax-induced lethality” value is “rescued”. Further, in the assay with t-Bid [2], the “interaction with t-Bid by co-immunoprecipitation” value was “found to interact”.

For “GFP-HN: Wild-type full-length Humanin fused to Green Fluorescent Protein”, the Bak-induced apoptosis entry with Bak is “not affected”.

These data come from patent US7422862B2, “Methods for identifying modulators of apoptosis” (The Burnham Institute, priority 2001, dated 2008).
